Paper PMC6131548, “Molecular basis for disassembly of an importin:ribosomal protein complex by the escortin Tsr2” (Nature Communications, 2018)

Experiments:
Settings in all cases: both partners purified
[1] = biological target: T1, Tsr2-N (NMR) (S. cerevisiae (yeast), UniProt Q06672 1-152); test: NMR titration; stepwise titration of the unlabeled component to the labeled one (Tsr2-N, ESS2 peptide), followed by 2D 15N,1H-HSQC; 293.15 K, NMR buffer
T1 construct: Used unlabeled or 13C,15N-labeled; also called N-terminal domain of Tsr2; source: E. coli BL21 (DE3) CodonPlus-RIL, purified (HisTrap, TEV, Superdex 75); not shown: (His)6-tagged GB1 domain, N-terminal, cleaved
T1 sequence (looked up): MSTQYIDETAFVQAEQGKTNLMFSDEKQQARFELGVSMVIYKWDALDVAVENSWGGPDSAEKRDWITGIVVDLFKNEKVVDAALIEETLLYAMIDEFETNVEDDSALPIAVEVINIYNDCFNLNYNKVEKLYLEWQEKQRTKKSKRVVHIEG

[2] = biological target: T2, Tsr2 of the recombinant Tsr2:eS26 complex (XL-MS) (S. cerevisiae (yeast), UniProt Q06672 1-205); test: cross-linking; recombinant Tsr2:eS26 complex, 1 mg/ml in 50 mM HEPES; DSS, PDH/DMTMM or ADH/DMTMM, 37 °C; digestion, SEC, LC-MS/MS (XL-MS)
T2 construct: Tsr2, S. cerevisiae; source: recombinant Tsr2:eS26 complex, 1 mg/ml in 50 mM HEPES
T2 sequence (looked up): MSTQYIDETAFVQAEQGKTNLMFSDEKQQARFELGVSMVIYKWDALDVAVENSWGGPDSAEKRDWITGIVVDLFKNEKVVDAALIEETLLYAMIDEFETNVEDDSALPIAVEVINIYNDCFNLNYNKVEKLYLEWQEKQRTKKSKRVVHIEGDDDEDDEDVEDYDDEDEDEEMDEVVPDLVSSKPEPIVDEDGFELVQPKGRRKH

[3] = biological target: T3, hTsr2 (ITC) (human, UniProt Q969E8 1-191); test: ITC; VP-ITC; 20–40 µM Tsr2 variant in the cell, 400–800 µM ESS2 peptide in the syringe; 25 °C, 20 mM NaPi pH 7.1, 1 mM DTT, 10 µM EDTA
T3 construct: human Tsr2; probably made like the NMR constructs; also called WT hTsr2; human Tsr2; source: E. coli BL21
T3 sequence (looked up): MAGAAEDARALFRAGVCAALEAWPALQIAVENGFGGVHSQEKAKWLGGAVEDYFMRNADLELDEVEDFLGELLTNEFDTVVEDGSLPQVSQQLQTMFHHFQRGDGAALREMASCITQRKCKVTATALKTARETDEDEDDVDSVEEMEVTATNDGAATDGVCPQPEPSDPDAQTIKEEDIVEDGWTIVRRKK

[4] = biological target: T4, hTsr2E64G (ITC) (human, UniProt Q969E8 1-191, E64G); test: as above
T4 construct: human Tsr2 with the Diamond-Blackfan anemia-linked mutation E64G; also called E64G-DBA variant; hTsr2E64G mutant; source: E. coli BL21
T4 sequence (looked up): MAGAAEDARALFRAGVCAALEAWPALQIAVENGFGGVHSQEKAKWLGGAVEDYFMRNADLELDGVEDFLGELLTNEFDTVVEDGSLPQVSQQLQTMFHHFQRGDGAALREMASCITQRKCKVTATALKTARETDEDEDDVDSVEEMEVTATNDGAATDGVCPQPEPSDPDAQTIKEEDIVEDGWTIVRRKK

B1: ESS2 peptide (peptide, UniProt P39938 100-119, looked up)
peptide: RPRFNRENKVSPADAAKKAL
notes: eukaryotic-specific segment 2 of eS26 (Rps26A), S. cerevisiae, residues 100-119 as deposited; ESS2 is defined as 99-119 in the results, the deposited peptide as 100-119; also called eS26-ESS2; S26A(100-119); source: E. coli BL21 (DE3) CodonPlus-RIL, cleaved from (His)6-GB1 by TEV, purified by reverse-phase HPLC (C8); not shown: (His)6-tagged GB1 domain, N-terminal, cleaved
B1: binds [1].

B2: eS26 of the recombinant Tsr2:eS26 complex (XL-MS) (natural protein)
chain: not shown
notes: ribosomal protein eS26 (Rps26A), S. cerevisiae; source: recombinant Tsr2:eS26 complex, 1 mg/ml in 50 mM HEPES
B2: binds [2].

B3: human ESS2 peptide (peptide)
chain: RFRPAGAAPRPPPKPM
modifications: Human limits are not printed. They are taken by ungapped alignment to the yeast ESS2 construct in PDB 6G04 (eS26 residues 100-119; the text defines ESS2 as 99-119), running to the human C-terminus. …
B3 was tested, and the Kd [3] was 2 µM and the Kd [4] was 90 µM.
